Experimental data as given in the NTF2 design screens of Basanta et al. (2020).

Experiment: protease stability score; higher = more stable; yeast display proteolysis, trypsin and chymotrypsin;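 note: relative to predicted unfolded state with 0 unfolded-like and 1 meaning tenfold more protease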

| Sequence | protease stability score |
| --- | --- |
| HEQDEAWDVINRDLAQSIETGDEHTERELLDPNVRIDFDGVKLHGRDEWHDFVRKELEHLGVDRIDIRIEIHNSKYQGEKVDSDTELKIRYGDKHVRIKTRLILHKIDGRWLVKSIQIN | 1.1 |
| HEQEKFVREYFELWVRAFLTGDEDTILDMMDPDVRIIYGDKTVVGWKELHKFLKRVDHARIKFEFRNTRYDENEAEVDGHRIVHLFFDGKIFDITTQIHVHMVKIDGVWTMKTIVNK | 1.55 |
| HEREEWSENAFRMILRSLMTGDERTLYELADPNVRLDVNGQDYHGREDFLHFYTHFLFRADHVELILRRERPVGDKLELDGELVSRVGDKTHHVEVRIVLWKVNGRWLIHSVYII | 1.81 |
| HEREHLLERMLKLLLELLLTGDEDTWKHYLDPHTRVIFNGREEHGRTAFERFVKELGVDHIEFKHVEIRHIGDKVHLHVDARVEINGRKHNMHLHIHLRKIDGQWEVKEFRIEIE | 1.27 |
| HERERMLEVALRLFIETMRTGDEKITSELADPNVKIHIGDKTDHGRESFTNFFEEMGADHVNVHDVEVQGDKVKTDIRIQIGDKMVESILYVKKVNGRWLIRSIEIR | 1.05 |
| HERQKEMETLVELFDEEWLTGNEQTHRRLADPHMKLDVNGKTYHGWKQYNKHLQDFLKRIDHVELEIKRIRVQGEYAHSDGTLRMHYNGVTEERNVHVEINIIDGRLKSVHLKVE | 1.1 |
| HESDKLVDEIFKTFIHAIVTGDEETLKTMLDPNTKFILIYGDKYHEHHGWRDLIRWLREIRIREIIHRHVENQGDKVHHEGELRGEFNGKEIRTEIHIHMVVVNGKLRRMEWEIK | 2.07 |
| HESEELAKHFSKIMDDLIRTGDEEHFDRLLDPNVKLDVNGRTIHGRERVSEIIHEKNKELGIDQIHVRKQDEHIIGDKLILHIEIIYGDKRIELIIITRKINGKWRIESVELREH | 0.876 |
| HESEEYAHRVSKDFDRAMRTGDWLRLLELIDPNARLHVGEFHVHGMEDIEKWIRHFLHRVDVIHIRVRDMRVQGEKVDVDYEIEERQGDKRRHYESRTIILKIDGKWHIKEIHIH | 1.14 |
| HESHEFVKEAFRLWVESLRTGDEKTLSRYADPHVRVTYDGREFHGRDWYVKLMDELRVNDVKLDDVNVQGEKIDIEGTIDGQVNGQDREIKVRLHAEKINGRWVNKKIQID | 1.11 |
| HESHNRVERILEEFFKAVETGDWRVLHELLDPHVRLDVDGRDHHGREDFSRFMKEIRVEEFRVTHLQIQGDKANVQSHRVGTYNGKRQEIRTWIHITKIDGQWYITEVTME | 0.544 |
| HESQEHDDRILDLFETLLRTGDWERLFQLADPHVRLRLHYGDKEIHQVGREEVVRMFLWWRERFGVDHFEVHEVRVVDGVNHIDGRLTVNGRNRRTEIVFIVVNGRIKEFEVRHR | 2.24 |
| HESTEYADYMLKFLSLVESTGNEDLFKRLFDPDVRLVINGVDTHGWESYHEHRKRVDHKEVEHSEIKHVEVQGEKIIVHGILHVRVKIGDKRFSFEIRFHLIVHKFNGKWHITSIEFH | 0.848 |
| HETEKLTKEYIREELEVLKTGDEKETRELLDPDVRIEQGEFSTHGWDYATHWLRTFTERVKGAQFEKKTIRVINGRVNIHMLMHFNGREERIDLISVKIDGRWLIKSVHIHIE | 0.208 |
| HETEQRLEHHIKLWFKAFMTGDEELLKFLADPNVRVDDDVNGVRFLNIGMEKLAEWLRKWLRRVPNVKFDLEDVKIFENRTHIDSRLDIDGKEIELHIHLILINGRIQEIRFSVK | 1.49 |
| HETKHLVDKFIELFKHNLETGDWDRLLELADPRTRVHVGDKTLIGMHEFRELHLRLIEKHGIKLNYYVHEVHVQGDKAHVDNEREEDYNGRVVSFRIRMHVEKFDGRWYLTRIEFN | 1.33 |
| HEVERIVEESDRHLLNSMLTGNEDELWRLLDPNARLDINGVQSIGRDEAYRVFHELLNHLRLREVDVHEMDVQGDKAHLTFKFNGDFNGKRDYLDFQVNSLKINGRWFLHSSSLI | 0.529 |
| HEWERLHHEAMEHFLRLQETGNEKTLQELADPDARLHYNGKDYHGRESMLKFWIELGVDHIHLHDFRIQGDKMEIHMDDHQGDKRLHTIIIHRKVNGQWHLQSEKIH | 0.548 |
| HEYEEEVTKAIEVLLHLLMTGDFDQMLHLADPNYRVDINGQEYIGREWFEVIRDKFKNVKIKDMHIDHVIFIGDKVIIHSREHRQQGDKERTFTVVLYSRKINGQWVHTSVKFS | 1.59 |
| HEYEEWSEIAMRLWILAERTGDERHIAHLLDPHVRYVFNGVEVIGMELITELVKRRWEQWRVHVEIEDRKFQGNFSKIEGHLRLHVGDKTEERRVEYRMDIVDGRIREISVIIE | 1.37 |
| HHDEELSEHMAHNWLEALLTGDEDMLRELADPHVRYRFNGRQEIGWEHLLRFVNEIRIHELEPRHIQIDLVNGQVHVHIEGTIDGRIGDKDDRRRTTIVLNIRKINGKWILESISMEVE | 1.68 |
| HKEHRDAHELLERWLRSSVTGDEDTLSELLDPNVKIEIGNKHVHGREEVSRHFSERAHRIDHVRLHVDDLYIQGEKVHVDLTLEINVGDWRQTIKVEYVVLKVNGRWRIHTIHER | 0.674 |
| HKLDEITKDMLEIFEKHSQTGDFQSLAKNVDPHARVDWDGRQFHGREDVQEVMIRLGVDHIEFKRIDIQGEWVHMDGQVYVNGRTTRTEFVSLKVNGRWYIHELRVR | 0.875 |
| HQDDDELKHFLELFIEQHETGDEHRLRKMADPRTRVEINGQEIHGMDQLVRHWLEFRKRMGVDHTHVILEHFHFQGDKVSARLRLIFIVGDKTFETDMNVIVVKVDGKWLIHEVSTR | 1.22 |
| HQEDRLVFALAKDWIDNLETGDEDKMLQRADPRRQLIIDGRTFHGWENTYENMKQIRIEHLEIRDMTVVDGRIHINTHSILIINGRRFETETSIRLVVVNGVIQDVDININ | 0.081 |

| Sequence | protease stability score |
| --- | --- |
| HRDEELSEEILRLILEILRTGDEDELRRLIDPHVRVSIGDKEKHGREWYLELVNVAGIKYIELKRIHVIGDKAHFETYVHVDGRDISLQFIILKINGKWFITSIRIETR | 1.4 |
| HRVETEAHHMMKLLEHWLQTGDEEMWKTYADPDVRIDVDGKTLHGRDNFEHVLRMYGIKHRHIRDSHYHFIGDYLHYNLDVEVHFNGKDLKTHFTFQIRKVDGRWELERVHIRVH | 0.941 |
| HSDEEKSRRATKWFIKIFHTGDEDRFHELADPNTRVIIGDKDFIGREKAVDAIHRIWEHLGIDVYDVEDIRIINGVVEVDTSFHINGRTIKTTTRIEKVNGQWVVDEVHFK | 1.23 |
| HSLEKDAHEAFELFADTVRTGDEKLMQHLIDPNVRFDYNGVDLHGWKDVSRLMIELRIEDVRLTHVHVIGNKVHLDTRIHSHVNGRRIDTEMHVDIEKVNGRWVIRRIEHR | 1.47 |
| IEQKEAWDEVYRIFVEAVRTGDWKSFERLLDPHTRIHFENREFHGREALEHDREKYKNMKLEHIEIKDQRVQGDKVIQFSHVVGNIDGRRLRFDIEIQFSKVDGVWTIELVIVR | 1.52 |
| KDTKRALDELSELELHADETGDWRVKHELLDPHTRIVIGDKTIHGREDMLTLMKKLQEHWRLKTIEIHHTEVVDGRIDADTILVGIVDGVERELRVRLIILKINGRWIYTSIKFD | 1.14 |
| KEDEELSSRFMLLMWHLMVTGNWKILEELADPNVRFIDEHHTLHGREEFVRTFKDWFDEIKNMKIHVRDSTVQGEKSNIHGELNFNGKRVDYTFIILFFNGRLHQIELRYH | -0.069 |
| KEDEEYFREVTKNLLELIETGDFDMLTELLDPHMLLDVNGRTFHGWELAVEWYRQHVKKFGIDNIKVTLKHIHIQGNKIHLDVEVEIGDKTERREFVLTKINGRWRFDSVVVR | 2.19 |
| KEDSEIAEDIIRLLNHASSTGDEETFTHLADPNVRIKIGDKESHGREEWSRTLTELRVEFKDMKIRDVDIQGEYVFVEGELRVEITVNGRTIEIHYESHFIMEKVNGRWHVHSVMML | 0.222 |
| KEEEDIVRHVVEKFIKNLLTGDFHSLMHMADPNVLVNFNGKENIGRELAVKTIERWWKELGVKHFEHFDLHDITIFDGKASLDTRVHGEINGKVHDFKTRIIIQKINGRWTVHSVEFE | 1.22 |
| KEEEEDLKKATEDMMHLLSTGDWDTIYRLADPNTRIEINGREEVGMDLYVDKSMEEFRRLGIDKIHIHLHSVTNVNGKIYIDTRYEFNGVKIRMHIVIEKINGRWLLRTLSVK | 1.52 |
| KEEEEEARQAWDLLHNIMKTGDEHQLMSLVDPNYLNIAEGREFHGREVFYHYMHELRVKWEHMHLKDYRVYNGRIRTEEHLVVHYEYGDKHDSLRTDVHLKDVKINGRWRVRHLHII | 0.78 |
| KEEEEFAKHILHMLRYLWETGDEEEFERMADPNARLIQGDKHFHGREEITKSVKELRVRHFEEKHIHYQGEKSLIIGHVDGEINGQRHEIDVIIRLEVVNGKLKRIRIEYR | 0.239 |
| KEEEEKLERLAELVIELFLTGDWKTLHSLLDPHYRSEIDGRTVHGRESHQTLLEEILRHLRIRRVHIEEYRIIDGVAWIDSRITLEINGRTVDTHMHIHLEFFNGRLHSIRVEIH | 2.47 |
| KEEEELVKKMLDLLVEAWETGDWKLLDHLLDPNVKLEVDGVLHIGREEAVRVMLEFHKRVDHVEVRDRDFRIQGEKVRHEVELRLHQGEFHVITRIEIEVTKVNGRWQMKHIRIE | 2.56 |
| KEEETHAREVSEANEHLLETGDWRRLSHLLDPNAKITINGRHFHGREFFTELQKRHEDMLGIKHRHIEDSTVVGDKVIIHTYYHVDGKTLDIEIIIVVINGRHERVEWRFK | 0.782 |
| KEEEWLAREWLRLWFEAVMTGDEHRLNHMLDPHVRTIVGDYEDVGRERSSELFLEIRLDHMELTSLDVQGDYAHLEIRVDGTIDGKRIETEMRVTLNIVDGRFRTVEHRIS | 0.755 |
| KEHEEILHHLAELFFENLLTGDWRLLTELMDPSARVHIGEWRSHGREHASRVMLEEFRQLRVRDVKLTDLKVIDGRMEIDTRMRIEVDGREHIHTIHIRIYIYNGRMDEIHLEVR | 0.125 |
| KEHEKFVEDFARLLINIWTTGDEDLFNELADPHVRVNFNGVEHHGRENVIRYIERVLREIRIDHVQTRDWTVIDGVMHIEGHIHIHFDGRQRTHDVIFHIIIWNGKMKNVIVSFR | 1.67 |
| KEHNDALELMYHWLIHLWKTGDERDIYELFDPNVRVDVNGRELHGMELVSHIELREMKRLGFKVIHIELTSVRYIGDKIEIDTIFHLHVGEYTERREHHILSYKVDGRWFVKESEVN | 1.18 |
| KEKEEIARMMLKELIKTIRTGDPEEWHKLFDPHVLIVIDGREIHGMEEHTRLLRELGIDRIELHTQHERHVSVQGDKVHLDIDVDGMFDGQKRRFHMHIDALKVNGQWVIQYIEIR | 1.96 |
| KELDEKVDTAIRIFHDVMLTGDEEKLIKLMDPNTRIRYNGRELHGWESHIKLREEELHELGVERVVHIFHNREIRAYDGVADIKGELEIRFNGRTVRHEFRIKFEKVNGRWVVREIEIH | 1.31 |
| KELEEHELRLAKDMSKVIETGDEERLRRLADPHVKVHINGKTRHGREWMSHLLNLMLTELRVRHLHIKDVFEVNGVAHSETELDGEVNGREIELHTEIILVVVNGKIQRLEIRIE | 1.06 |
| KELERDSREATHTFLRDIKTGDFESLHRLADPTTRMHIGDKEFHGWELLIHVIAEFLRKVPNMRTTLRDERVQGEKVEVRVDIHYNGQDRHIELEIHKVNGKWWIKVMEFE | 0.88 |
| KEQDHLIKNVLERLFRAFHTGNEEELEKLIDPHAMIIIGDKHFHGREEVLHTLVNLVNEIRFRDMELKDSRLFDGRVNIDLDEHIRQGDKHHLYEVHLILYKFDGRWFIRKFEIR | 1.46 |
